In patent publication US20240042018A1 (University of Washington, published 2024):
Numbering of substitutions follows the chain as printed.

Key:
[1] = target: T1, H1MI15-I53_dn5B trimer (A/Michigan/45/2015 HA 1-676 Y98F no lkr dn5B.SA.WELQ-H) (influenza A virus H1/A/Michigan/45/2015 …); assay: in vitro nanoparticle assembly, SEC
[2] = target: T1, H1MI15-I53_dn5B trimer …; assay: in vitro nanoparticle assembly, SEC and SDS-PAGE
[3] = target: T1, H1MI15-I53_dn5B trimer …; assay: in vitro nanoparticle assembly; SEC, DLS, nsTEM
[4] = target: T1, H1MI15-I53_dn5B trimer …; assay: in vitro nanoparticle assembly

B1: I53_dn5A_1C5kPEG pentamer (designed binder)
chain: MGKYDGSKLRIGILHARGNAEIILALVLGALKRLQEFGVKRENIIIETVPGSFELPYGSKLFVEKQKRLGKPLDAIIPIGVLIRGSTPHFDYIADSTTHQLMKLNFELGIPVIFGVITADTCEQAEARAGLIEGKMHNHGEDWGAAAVEMATKFNGGWELQLEGSHHHHHH
binding result [1]: binds

B2: I53_dn5A_D120C pentamer coupled to 1 kDa PEG (designed binder)
chain: B1 chain
binding result [2]: binds

B3: I53_dn5A_D120C pentamer coupled to 2 kDa PEG (designed binder)
chain: B1 chain
binding result [2]: binds

B4: I53_dn5A_2C2kPEG pentamer (designed binder)
chain: B1 chain with S86C
binding result [3]: binds

B5: I53_dn5A_S84C_D120C pentamer coupled to 1 kDa PEG (designed binder)
chain: B1 chain with S86C
binding result [3]: binds

B6: I53_dn5A_2gly pentamer (designed binder)
chain: KYDGSKLRIGILHARGNAEIILELVLGALKRLQEFGVKRENIIIETVPGSFELPYGSKLFVEKQKRLGKPLDAIIPIGVLIRGNDTHFDYIADSTTHQLMKLNFELGIPVIFGVLTTNSTEQAEERAGTKAGNHGEDWGAAAVEMATKFNLEEQKLISEEDLHHHHHH
binding result [4]: binds

B7: I53_dn5Acp7 PAS pentamer (designed binder)
chain: MGSHHHHHHGSDEQAEERAGTKAGNHGEDWGAAAVEMATKFNGSGGSGKYDGSKLRIGILHARGNAEIILELVLGALKRLQEFGVKRENIIIETVPGSFELPYGSKLFVEKQKRLGKPLDAIIPIGVLIRGSTAHFDYIADSTTHQLMKLNFELGIPVIFGVLTTESGGSASPAAPAPASPAAPAPSAPAAASPAAPAPASPAAPAPSAPAAASPAAPAPASPAAPAPSAPAA
binding result [3]: binds
